Source: the supplement of paper PMC6757056
± gives the standard deviation of the averaged measurements.

B1: library; a variant is named by its letters at N, in order (parent)
chain: GCUGUCACCGGAAUACCAGCAUCGUCUUGAUGCCCUUGGAAGUCCGGUCUGAUGAGUCCNNNNNGGACGAAACAGC

What was measured:
[1] = variants of: B1; test: FACS-Seq fitted mean relative fluorescence mCherry/BFP without ligand (log10 relative fluorescence); higher = higher reporter protein expression; details: HEK293T, ligand present: no
Procedure, shortened: (§1)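 Enriched HEK293T cells carrying, by lentivirus, an mCherry reporter with the ribozyme switch and an EF1α-BFP marker spent 48 h with or without ligand and were sorted into 6 bins by mCherry/BFP. MiSeq sequencing of PCR-amplified bin genomic DNA gave bin counts. Fluorescence was calculated as the fitted normal mean of those counts. Counts were binned on log10(mCherry/BFP), and means were scaled to five spiked-in control ribozymes.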

[2] = variants of: B1; test: normalized RNA/DNA level with ligand (relative to sTRSVctl = 100) (log10 (% of sTRSVctl)); higher = less ribozyme self-cleavage, higher mRNA level; details: ligand concentration (+) RNA-Seq: 5 mM, HEK293T, reporter: mCherry (pCS4076), ligand present: yes
Procedure, shortened: (§2)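 Total RNA, extracted with EDTA 72 h after HEK293T cells were transfected with 4 µg per 6-well well of reporter-linked ribozyme switch library plasmids, was reverse-transcribed, amplified, barcoded and sequenced. Ligand, if used, was added 1 h before transfection. RNA level was derived from RNA reads divided by DNA reads and normalized to a spiked-in non-cleaving sequence or to the top sequences. This was multiplied by 100 and log10-transformed, with the top set of 25 sequences and a ≥100 DNA read minimum.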

[3] = variants of: B1; test: normalized RNA/DNA level without ligand (relative to sTRSVctl = 100) (log10 (% of sTRSVctl)); higher = less ribozyme self-cleavage, higher mRNA level; details: HEK293T, reporter: mCherry (pCS4076), ligand present: no
Procedure, shortened: as §2

[4] = variants of: B1; test: FACS-Seq fitted mean relative fluorescence mCherry/BFP with ligand (log10 relative fluorescence); ligand concentration (+) FACS-Seq: 1 mM; higher = higher reporter protein expression; details: HEK293T, ligand present: yes
Procedure, shortened: as §1

| Variant | FACS-Seq fitted mean (log10) [1] | normalized RNA/DNA level with ligand (log10) [2] | normalized RNA/DNA level without ligand (log10) [3] | FACS-Seq fitted mean (log10) [4] |
| --- | --- | --- | --- | --- |
| AGGUC | 0.52 ± 0.032 | 1.95 ± 0.15 | 1.872 ± 0.016 | 0.587 ± 0.049 |
| AACAG | 0.587 ± 0.0063 | 1.855 ± 0.014 | 1.78 ± 0.055 | 0.677 ± 0.035 |
| UCCCC | 1.11 ± 0.13 | 2.005 ± 0.019 | 2.01 ± 0.053 | 1.06 ± 0.032 |
| UCUAU | 0.822 ± 0.091 | 2.051 ± 0.0076 | 1.867 ± 0.015 | 0.994 ± 0.05 |
| GAAUC | 0.7173 ± 0.0037 | 1.962 ± 0.011 | 1.855 ± 0.015 | 0.683 ± 0.059 |
| CCACA | 0.241 ± 0.0081 | 1.97 ± 0.022 | 1.75 ± 0.096 | 0.47 ± 0.086 |
| CCACC | 0.788 ± 0.091 | 1.99 ± 0.087 | 1.97 ± 0.061 | 0.739 ± 0.01 |
| CCACU | 0.682 ± 0.012 | 2.01 ± 0.059 | 1.76 ± 0.16 | 0.818 ± 0.014 |
| CUCAU | 1.03 ± 0.12 | 1.973 ± 0.0058 | 1.85 ± 0.06 | 1.07 ± 0.03 |
| UCGAC | 0.96 ± 0.048 | 1.9 ± 0.12 | 1.78 ± 0.059 | 0.965 ± 0.022 |
| AGAGU | 0.387 ± 0.049 | 2.006 ± 0.008 | 1.58 ± 0.045 | 0.442 ± 0.022 |
| AGAGA | 0.056 ± 0.00013 | 1.952 ± 0.0099 | 1.28 ± 0.092 | 0.603 ± 0.011 |
| ACCCA | 0.9 ± 0.021 | 2.02 ± 0.044 | 1.93 ± 0.066 | 0.869 ± 0.033 |
| AUAUU | 0.891 ± 0.015 | 2.05 ± 0.067 | 1.91 ± 0.024 | 0.928 ± 0.12 |
| CUGCU | 0.644 ± 0.032 | 1.92 ± 0.082 | 1.86 ± 0.062 | 0.658 ± 0.0024 |
| UGAAU | 0.471 ± 0.056 | 1.94 ± 0.057 | 1.77 ± 0.15 | 0.732 ± 0.045 |
| AGGCA | 0.779 ± 0.085 | 1.99 ± 0.039 | 1.79 ± 0.057 | 0.896 ± 0.1 |
| UAAUU | 0.64 ± 0.039 | 2 ± 0.023 | 1.84 ± 0.062 | 0.613 ± 0.056 |

| Variant | FACS-Seq fitted mean (log10) [1] | normalized RNA/DNA level with ligand (log10) [2] | normalized RNA/DNA level without ligand (log10) [3] | FACS-Seq fitted mean (log10) [4] |
| --- | --- | --- | --- | --- |
| UAAUA | 0.553 ± 0.011 | 2.03 ± 0.11 | 1.56 ± 0.15 | 0.868 ± 0.015 |
| UUUUU | 0.93 ± 0.071 | 2.01 ± 0.027 | 1.95 ± 0.15 | 0.991 ± 0.017 |
| UCAUU | 0.822 ± 0.046 | 2.03 ± 0.045 | 1.815 ± 0.0057 | 0.906 ± 0.071 |
| CUUAC | 0.44 ± 0.11 | 2.04 ± 0.065 | 1.95 ± 0.15 | 0.194 ± 0.17 |
| AGAAG | 0.448 ± 0.033 | 1.93 ± 0.025 | 1.61 ± 0.17 | 0.576 ± 0.014 |
| AGAAC | 0.387 ± 0.005 | 1.9164 ± 0.00023 | 1.78 ± 0.12 | 0.507 ± 0.016 |
| ACAUA | 0.248 ± 0.061 | 1.94 ± 0.1 | 1.72 ± 0.045 | 0.427 ± 0.032 |
| ACAUU | 1.04 ± 0.16 | 2 ± 0.036 | 1.85 ± 0.042 | 1.15 ± 0.18 |
| ACAUG | 0.862 ± 0.2 | 1.913 ± 0.0094 | 1.81 ± 0.02 | 1.01 ± 0.017 |
| UACUC | 0.1 ± 0.14 | 2.1 ± 0.021 | 2.02 ± 0.039 | 0.351 ± 0.022 |
| AAUCU | 0.634 ± 0.065 | 1.94 ± 0.026 | 1.87 ± 0.026 | 0.57 ± 0.049 |
| ACUUA | 0.5998 ± 0.0045 | 2.05 ± 0.037 | 1.78 ± 0.032 | 0.66 ± 0.015 |
| UACAU | 0.684 ± 0.015 | 2.03 ± 0.17 | 1.91 ± 0.14 | 0.722 ± 0.0088 |
| AACUU | 1.01 ± 0.076 | 1.9847 ± 0.0011 | 1.89 ± 0.059 | 0.981 ± 0.015 |
| UCAAU | 0.686 ± 0.07 | 2 ± 0.028 | 1.83 ± 0.095 | 0.789 ± 0.093 |
| GAAAU | 0.796 ± 0.0017 | 2.01 ± 0.038 | 1.71 ± 0.059 | 1.04 ± 0.097 |
| UUGUG | 0.172 ± 0.13 | 1.96 ± 0.09 | 1.868 ± 0.014 | 0.266 ± 0.051 |
| CAGAU | 0.809 ± 0.1 | 2 ± 0.035 | 1.6 ± 0.25 | 1.05 ± 0.037 |
